Data on 65 substances can be found in patent publication US20160279215A1, “NOVEL PEPTIDES AND COMBINATION OF PEPTIDES FOR USE IN IMMUNOTHERAPY AGAINST VARIOUS TUMORS” (immatics biotechnologies GmbH, priority 2015, published 2016).

For the assay, the target named is T1, HLA-A*02:01 (Homo sapiens, UniProt P04439, D140Y/D185E/D98H/E176V/E277Q/G131W/G231S/I119V/I121R/I166T/I218V/L300P/L318F/N151K/N90K/P208A/P217A/Q86G/Q94H/R138H/R169H/T345S).
T1 construct: made in house
As to the kind of experiment: MHC binding assay: UV-ligand exchange with β2m ELISA (peptide exchange yield). Particulars: binding to HLA-A*02:01 evaluated by peptide exchange yield (UV-ligand exchange, β2m ELISA). An excerpt: Candidate peptides for T cell based therapies according to the present invention were further tested for their MHC binding capacity (affinity). The individual peptide-MHC complexes were produced by UV-ligand exchange, where a UV-sensitive peptide is cleaved upon UV-irradiation, and exchanged with the peptide of interest as analyzed. Only peptide candidates that can effectively bind and stabilize the peptide-receptive MHC molecules prevent dissociation of the MHC complexes. To determine the yield of the exchange reaction, an ELISA was performed based on the detection of the light chain (β2m) of stabilized MHC complexes. The assay was performed as generally described in Rodenko et al. (Rodenko et al., 2006).
96 well MAXISorp plates (NUNC) were coated over night with 2 ug/ml streptavidin in PBS at room temperature, washed 4× and blocked for 1 h at 37° C. in 2% BSA containing blocking buffer. Refolded HLA-A*02:01/MLA-001 monomers served as standards, covering the range of 15-500 ng/ml. Peptide-MHC monomers of the UV-exchange reaction were diluted 100 fold in blocking buffer. Samples were incubated for 1 h at 37° C., washed four times, incubated with 2 ug/ml HRP conjugated anti-β2m for 1 h at 37° C., washed again and detected with TMB solution that is stopped with […]. Absorption was measured at 450 nm. Candidate peptides that show a high exchange yield (preferably higher than 50%, most preferred higher than 75%) are generally preferred for a generation and production of antibodies or fragments thereof, and/or T cell receptors or fragments thereof, as they show sufficient avidity to the MHC molecules and prevent dissociation of the MHC complexes.
“159 (QLGPVPVTI; listed as Homo sapiens) [compound 159]”: the Peptide exchange entry is reported as “+++ (≧50 = +++)”.
For “160 (TLQEWLTEV; listed as Homo sapiens) [compound 160]”, the Peptide exchange result was “+++ (≧50 = +++)”.
In the case of “161 (NLLDENVCL; listed as Homo sapiens) [compound 161]” it was “++++ (≧75% = ++++)”.
Then “162 (GLLGNLLTSL; listed as Homo sapiens) [compound 162]”, with “+++ (≧50 = +++)”; and “163 (GLEERLYTA; listed as Homo sapiens) [compound 163]”, with “++ (≧20% = ++)”; and “164 (MLIIRVPSV; listed as Homo sapiens) [compound 164]”, with “+++ (≧50 = +++)”.
Then “165 (SLLDYEVSI; listed as Homo sapiens) [compound 165]”, with “+++ (≧50 = +++)”; and “167 (LVVDEGSLVSV; listed as Homo sapiens) [compound 167]”, with “+++ (≧50 = +++)”; and “168 (VIFEGEPMYL; listed as Homo sapiens) [compound 168]”, with “+++ (≧50 = +++)”.
For “169 (ALADLSVAV; listed as Homo sapiens) [compound 169]”, the Peptide exchange entry is given as “+++ (≧50 = +++)”.
Then “170 (FIAAVVEKV; listed as Homo sapiens) [compound 170]”, with “++ (≧20% = ++)”; and “171 (LLLLDVPTA; listed as Homo sapiens) [compound 171]”, with “++ (≧20% = ++)”.
In the case of “173 (RLIDIYKNV; listed as Homo sapiens) [compound 173]” it was “+++ (≧50 = +++)”; in that of “174 (ALYSGDLHAA; listed as Homo sapiens) [compound 174]”, “++ (≧20% = ++)”.
In the case of “175 (SLLDLVQSL; listed as Homo sapiens) [compound 175]” it was “+++ (≧50 = +++)”; in that of “176 (VQSGLRILL; listed as Homo sapiens) [compound 176]”, “++ (≧20% = ++)”; in that of “177 (ALINVLNAL; listed as Homo sapiens) [compound 177]”, “+++ (≧50 = +++)”.
As for “178 (SLVSWQLLL; listed as Homo sapiens) [compound 178]”, the Peptide exchange entry was “++++ (≧75% = ++++)”.
Then “179 (TLGEIIKGV; listed as Homo sapiens) [compound 179]”, with “+++ (≧50 = +++)”; and “180 (RLYEEEIRI; listed as Homo sapiens) [compound 180]”, with “+++ (≧50 = +++)”; and “181 (LLWAPTAQA; listed as Homo sapiens) [compound 181]”, with “+++ (≧50 = +++)”.
Then “182 (GLQDGFQITV; listed as Homo sapiens) [compound 182]”, with “+++ (≧50 = +++)”; and “183 (ALSYILPYL; listed as Homo sapiens) [compound 183]”, with “+++ (≧50 = +++)”; and “184 (ALDSTIAHL; listed as Homo sapiens) [compound 184]”, with “++ (≧20% = ++)”.
In the case of “185 (TLYQGLPAEV; listed as Homo sapiens) [compound 185]” it was “++ (≧20% = ++)”; in that of “187 (SILKEDPFL; listed as Homo sapiens) [compound 187]”, “++ (≧20% = ++)”; in that of “188 (VLGEEQEGV; listed as Homo sapiens) [compound 188]”, “++ (≧20% = ++)”.
Turning to “190 (SLSTELFKV; listed as Homo sapiens) [compound 190]”, the Peptide exchange result is listed as “+++ (≧50 = +++)”.
Then “191 (AAIEIFEKV; listed as Homo sapiens) [compound 191]”, with “+++ (≧50 = +++)”; and “192 (TLLPSSGLVTL; listed as Homo sapiens) [compound 192]”, with “++ (≧20% = ++)”; and “193 (ALFHMNILL; listed as Homo sapiens) [compound 193]”, with “+++ (≧50 = +++)”.
In the case of “194 (KLLEEVQLL; listed as Homo sapiens) [compound 194]” it was “++ (≧20% = ++)”.
Take “195 (VIIQNLPAL; listed as Homo sapiens) [compound 195]”: the Peptide exchange result is on record as “+++ (≧50 = +++)”.
With “198 (ILTNKVVSV; listed as Homo sapiens) [compound 198]”, the Peptide exchange entry is given as “++ (≧20% = ++)”.
Regarding “199 (SVADLAHVL; listed as Homo sapiens) [compound 199]”, the Peptide exchange entry is “++ (≧20% = ++)”.
In the case of “200 (IMPTFDLTKV; listed as Homo sapiens) [compound 200]” it was “+++ (≧50 = +++)”.
In the case of “203 (FLFVDPELV; listed as Homo sapiens) [compound 203]” it was “++ (≧20% = ++)”.
In the case of “204 (SEWGSPHAAVP; listed as Homo sapiens) [compound 204]” it was “+++ (≧50 = +++)”; in that of “206 (GLDAFRIFL; listed as Homo sapiens) [compound 206]”, “++++ (≧75% = ++++)”.
Turning to “207 (KLFETVEEL; listed as Homo sapiens) [compound 207]”, the Peptide exchange result was “+++ (≧50 = +++)”.
With “208 (HLNNDRNPL; listed as Homo sapiens) [compound 208]”, the Peptide exchange entry was “++ (≧20% = ++)”.
On to “210 (GLAGDNIYL; listed as Homo sapiens) [compound 210]”, for which the Peptide exchange entry is “+++ (≧50 = +++)”.
Then “211 (LLTTVLINA; listed as Homo sapiens) [compound 211]”, with “+++ (≧50 = +++)”.
In the case of “212 (MTLSEIHAV; listed as Homo sapiens) [compound 212]” it was “++ (≧20% = ++)”; in that of “213 (ILAVDGVLSV; listed as Homo sapiens) [compound 213]”, “+++ (≧50 = +++)”; in that of “214 (ALFETLIQL; listed as Homo sapiens) [compound 214]”, “+++ (≧50 = +++)”.
Then “215 (QIADIVTSV; listed as Homo sapiens) [compound 215]”, with “++ (≧20% = ++)”; and “216 (ALSTVTPRI; listed as Homo sapiens) [compound 216]”, with “++ (≧20% = ++)”; and “217 (LLWPSSVPA; listed as Homo sapiens) [compound 217]”, with “+++ (≧50 = +++)”.
Consider “218 (SLTGANITV; listed as Homo sapiens) [compound 218]”, for which the Peptide exchange entry is listed as “+++ (≧50 = +++)”.
Consider “219 (GVVPTIQKV; listed as Homo sapiens) [compound 219]”, for which the Peptide exchange entry was “++ (≧20% = ++)”.
In the case of “220 (ALSELERVL; listed as Homo sapiens) [compound 220]” it was “+++ (≧50 = +++)”.
Then “221 (IMLNSVEEI; listed as Homo sapiens) [compound 221]”, with “++ (≧20% = ++)”.
As for “222 (LLTGVFAQL; listed as Homo sapiens) [compound 222]”, the Peptide exchange result was “++ (≧20% = ++)”.
Regarding “223 (ALHPVQFYL; listed as Homo sapiens) [compound 223]”, the Peptide exchange result was “+++ (≧50 = +++)”.
In the case of “224 (LLFDWSGTGRADA; listed as Homo sapiens) [compound 224]” it was “+++ (≧50 = +++)”; in that of “225 (FLPQPVPLSV; listed as Homo sapiens) [compound 225]”, “+++ (≧50 = +++)”; in that of “226 (SLAGNLQEL; listed as Homo sapiens) [compound 226]”, “+++ (≧50 = +++)”.
On to “227 (SEMEELPSV; listed as Homo sapiens) [compound 227]”, for which the Peptide exchange entry was “+ (≧10% = +)”.
In the case of “228 (SLLELDGINLRL; listed as Homo sapiens) [compound 228]” it was “+++ (≧50 = +++)”; in that of “229 (YLYELEHAL; listed as Homo sapiens) [compound 229]”, “++ (≧20% = ++)”.
In the case of “230 (KLLNMIFSI; listed as Homo sapiens) [compound 230]” it was “+++ (≧50 = +++)”; in that of “231 (LLDDIFIRL; listed as Homo sapiens) [compound 231]”, “+++ (≧50 = +++)”; in that of “235 (SLLNQPKAV; listed as Homo sapiens) [compound 235]”, “++ (≧20% = ++)”.
In the case of “237 (ALLEQTGDMSL; listed as Homo sapiens) [compound 237]” it was “+++ (≧50 = +++)”.
